What was measured:
[1] = target: Wild-type S-crystallin (OctS4) of Octopus vulgaris (Octopus vulgaris); test: AUC; sedimentation velocity, 20 °C, 42,000 rpm, protein 0.025–1.0 mg/ml in 50 mM phosphate, pH 6.5; continuous c(M) distribution by SEDFIT
Octopus GST-σ = system: T1, Octopus GST-σ; test: GSH-CDNB conjugation, absorbance […] nm; format: biochemical, Octopus vulgaris; conditions: GSH 10 mM; apparent; read-out: Km,CDNB (mM) ^c
T1 construct: gene GST-sigma

stoichiometry N [1] | Molecule | Km (Octopus GST-σ)
2 | Wild-type S-crystallin (OctS4) of Octopus vulgaris (natural protein) | –
– | O=[N+]([O-])c1ccc(Cl)c([N+](=O)[O-])c1 [CDNB, 1-chloro-2,4-dinitrobenzene] | 0.47 ± 0.04 mM

Reference: PMC4976375, “Structure of a Highly Active Cephalopod S-crystallin Mutant: New Molecular Evidence for Evolution from an Active Enzyme into Lens-Refractive Protein” (Scientific Reports, 2016)
